Measurements reported in article PMC9482650, “Quantitative fragmentomics allow affinity mapping of interactomes” (Nature Communications, 2022).

B1: GAS2L2, Q8NHY3 (peptide)
chain: PLPPEEESWV

molecular target: MAGI1_2, Q96QZ7; experiment: holdup assay; design: key: below the threshold = too weak to quantify, mostly under pKd 3.1 to 4; details: plain residues with an end cap or a label only (N-terminal biotin on a linker: ado-ado)
Sequence (Q96QZ7 456-580): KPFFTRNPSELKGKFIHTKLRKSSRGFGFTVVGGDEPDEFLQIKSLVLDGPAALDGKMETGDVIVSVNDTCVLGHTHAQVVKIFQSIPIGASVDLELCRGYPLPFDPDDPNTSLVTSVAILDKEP

**Q.** Which pKd does the source give for B1 here?
**A.** Its pKd is “below the threshold”.

molecular target: T1, SYNJ2BP, P57105; experiment: holdup assay; design: key: below the threshold = too weak to quantify, mostly under pKd 3.1 to 4; details: plain residues with an end cap or a label only (N-terminal biotin on a linker: ado-ado)
T1 sequence (P57105 8-110, limits assumed, looked up): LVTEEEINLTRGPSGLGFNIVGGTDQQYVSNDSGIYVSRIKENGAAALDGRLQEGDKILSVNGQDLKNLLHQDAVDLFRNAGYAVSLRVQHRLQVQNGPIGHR

**Q.** How did the pKd turn out when B1 was run?
**A.** Its pKd is 4.98.

molecular target: GRID2IP_1, A4D2P6; experiment: holdup assay; design: key: below the threshold = too weak to quantify, mostly under pKd 3.1 to 4; details: plain residues with an end cap or a label only (N-terminal biotin on a linker: ado-ado)
Sequence (A4D2P6 1-87): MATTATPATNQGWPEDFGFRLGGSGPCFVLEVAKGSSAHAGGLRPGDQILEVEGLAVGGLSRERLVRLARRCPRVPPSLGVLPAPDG

**Q.** Which pKd does the source give for B1 here?
**A.** Its pKd is “below the threshold”.

molecular target: MAGI1_1, Q96QZ7; experiment: holdup assay; design: key: below the threshold = too weak to quantify, mostly under pKd 3.1 to 4; details: plain residues with an end cap or a label only (N-terminal biotin on a linker: ado-ado)
Sequence (Q96QZ7 1-106): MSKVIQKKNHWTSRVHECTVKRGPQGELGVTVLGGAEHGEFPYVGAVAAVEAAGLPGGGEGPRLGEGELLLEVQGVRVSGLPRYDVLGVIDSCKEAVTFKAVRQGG

**Q.** Which pKd does the source give for B1 here?
**A.** Its pKd is “below the threshold”.

molecular target: DLG4_3, P78352; experiment: holdup assay; design: key: below the threshold = too weak to quantify, mostly under pKd 3.1 to 4; details: plain residues with an end cap or a label only (N-terminal biotin on a linker: ado-ado)
Sequence (P78352 306-403): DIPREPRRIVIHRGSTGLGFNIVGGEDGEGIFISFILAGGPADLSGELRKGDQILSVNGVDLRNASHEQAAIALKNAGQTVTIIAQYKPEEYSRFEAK

**Q.** B1 was tested. Which pKd did it give?
**A.** The pKd was “below the threshold”.

molecular target: T2, PDZD7_3, Q9H5P4; experiment: holdup assay; design: key: below the threshold = too weak to quantify, mostly under pKd 3.1 to 4; details: plain residues with an end cap or a label only (N-terminal biotin on a linker: ado-ado)
T2 sequence (Q9H5P4 857-944, limits assumed, looked up): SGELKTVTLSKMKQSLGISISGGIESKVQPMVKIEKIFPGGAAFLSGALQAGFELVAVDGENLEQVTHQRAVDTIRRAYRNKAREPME

**Q.** How did the pKd turn out when B1 was run?
**A.** Its pKd is 4.32.

molecular target: T3, SHANK1, Q9Y566; experiment: holdup assay; design: key: below the threshold = too weak to quantify, mostly under pKd 3.1 to 4; details: plain residues with an end cap or a label only (N-terminal biotin on a linker: ado-ado)
T3 sequence (Q9Y566 658-767, limits assumed, looked up): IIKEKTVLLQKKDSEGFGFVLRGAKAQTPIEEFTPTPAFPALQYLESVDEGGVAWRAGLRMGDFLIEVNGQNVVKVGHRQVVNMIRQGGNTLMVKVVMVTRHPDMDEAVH

**Q.** B1 was tested. Which pKd did it give?
**A.** The pKd was 4.62.

molecular target: T4, PTPN13_1, Q12923; experiment: holdup assay; design: key: below the threshold = too weak to quantify, mostly under pKd 3.1 to 4; details: plain residues with an end cap or a label only (N-terminal biotin on a linker: ado-ado)
T4 sequence (Q12923 1088-1188, limits assumed, looked up): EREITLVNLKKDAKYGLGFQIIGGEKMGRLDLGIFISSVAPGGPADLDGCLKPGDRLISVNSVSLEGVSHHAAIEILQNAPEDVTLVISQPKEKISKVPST

**Q.** With B1 as the binder, how does the pKd read?
**A.** Its pKd is “below the threshold”.

molecular target: Inadl_8, Q8NI35; experiment: holdup assay; design: key: below the threshold = too weak to quantify, mostly under pKd 3.1 to 4; details: plain residues with an end cap or a label only (N-terminal biotin on a linker: ado-ado)
Sequence (Q8NI35 1425-1530): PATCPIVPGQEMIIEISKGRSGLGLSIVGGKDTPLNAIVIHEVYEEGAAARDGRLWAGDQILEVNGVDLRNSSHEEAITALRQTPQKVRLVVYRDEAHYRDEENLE

**Q.** Which pKd does the source give for B1 here?
**A.** Its pKd is 3.8.

molecular target: T5, GRIP1_3, Q9Y3R0; experiment: holdup assay; design: key: below the threshold = too weak to quantify, mostly under pKd 3.1 to 4; details: plain residues with an end cap or a label only (N-terminal biotin on a linker: ado-ado)
T5 sequence (Q9Y3R0 247-346, limits assumed, looked up): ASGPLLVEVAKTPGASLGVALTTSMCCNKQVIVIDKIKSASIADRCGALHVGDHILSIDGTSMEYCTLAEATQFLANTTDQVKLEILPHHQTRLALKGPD

**Q.** Which pKd does the source give for B1 here?
**A.** Its pKd is “below the threshold”.

molecular target: T6, DFNB31_1, Q9P202; experiment: holdup assay; design: key: below the threshold = too weak to quantify, mostly under pKd 3.1 to 4; details: plain residues with an end cap or a label only (N-terminal biotin on a linker: ado-ado)
T6 sequence (Q9P202 135-233, limits assumed, looked up): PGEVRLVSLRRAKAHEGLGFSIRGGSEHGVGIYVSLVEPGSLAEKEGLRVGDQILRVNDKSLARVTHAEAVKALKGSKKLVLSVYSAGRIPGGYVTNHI

**Q.** How did the pKd turn out when B1 was run?
**A.** Its pKd is 4.46.

molecular target: AHNAK1, Q09666; experiment: holdup assay; design: key: below the threshold = too weak to quantify, mostly under pKd 3.1 to 4; details: plain residues with an end cap or a label only (N-terminal biotin on a linker: ado-ado)
Sequence (Q09666 4-100): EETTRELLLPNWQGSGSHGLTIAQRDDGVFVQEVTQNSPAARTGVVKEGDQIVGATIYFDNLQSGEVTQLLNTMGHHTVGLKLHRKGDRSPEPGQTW

**Q.** How did the pKd turn out when B1 was run?
**A.** Its pKd is “below the threshold”.

molecular target: T7, MPP6, Q9NZW5; experiment: holdup assay; design: key: below the threshold = too weak to quantify, mostly under pKd 3.1 to 4; details: plain residues with an end cap or a label only (N-terminal biotin on a linker: ado-ado)
T7 sequence (Q9NZW5 125-219, limits assumed, looked up): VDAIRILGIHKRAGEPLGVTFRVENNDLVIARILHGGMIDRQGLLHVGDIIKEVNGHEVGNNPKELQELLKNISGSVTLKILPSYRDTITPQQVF

**Q.** B1 was tested. Which pKd did it give?
**A.** The pKd was “below the threshold”.

molecular target: FRMPD2_3, Q68DX3; experiment: holdup assay; design: key: below the threshold = too weak to quantify, mostly under pKd 3.1 to 4; details: plain residues with an end cap or a label only (N-terminal biotin on a linker: ado-ado)
Sequence (Q68DX3 1073-1166): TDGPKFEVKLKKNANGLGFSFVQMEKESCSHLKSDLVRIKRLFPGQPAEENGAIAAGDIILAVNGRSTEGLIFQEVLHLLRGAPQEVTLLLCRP

**Q.** How did the pKd turn out when B1 was run?
**A.** Its pKd is 4.04.

molecular target: DLG4_2, P78352; experiment: holdup assay; design: key: below the threshold = too weak to quantify, mostly under pKd 3.1 to 4; details: plain residues with an end cap or a label only (N-terminal biotin on a linker: ado-ado)
Sequence (P78352 155-259): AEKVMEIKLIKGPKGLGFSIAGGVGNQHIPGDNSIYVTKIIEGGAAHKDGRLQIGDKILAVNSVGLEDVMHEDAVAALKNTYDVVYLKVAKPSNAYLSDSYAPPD

**Q.** B1 was tested. Which pKd did it give?
**A.** The pKd was 4.69.

molecular target: NHERF2_2, Q15599; experiment: holdup assay; design: key: below the threshold = too weak to quantify, mostly under pKd 3.1 to 4; details: plain residues with an end cap or a label only (N-terminal biotin on a linker: ado-ado)
Sequence (Q15599 142-238): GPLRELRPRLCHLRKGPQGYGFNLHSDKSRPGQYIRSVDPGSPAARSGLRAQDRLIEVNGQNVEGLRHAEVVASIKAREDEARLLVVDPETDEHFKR

**Q.** Which pKd does the source give for B1 here?
**A.** Its pKd is 4.62.

molecular target: T8, MPDZ_12, O75970; experiment: holdup assay; design: key: below the threshold = too weak to quantify, mostly under pKd 3.1 to 4; details: plain residues with an end cap or a label only (N-terminal biotin on a linker: ado-ado)
T8 sequence (O75970 1857-1958, limits assumed, looked up): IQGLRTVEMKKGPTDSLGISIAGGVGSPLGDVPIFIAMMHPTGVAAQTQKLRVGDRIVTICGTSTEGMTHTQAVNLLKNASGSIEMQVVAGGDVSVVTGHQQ

**Q.** With B1 as the binder, how does the pKd read?
**A.** The pKd was 4.36.

molecular target: DLG5_1, Q8TDM6; experiment: holdup assay; design: key: below the threshold = too weak to quantify, mostly under pKd 3.1 to 4; details: plain residues with an end cap or a label only (N-terminal biotin on a linker: ado-ado)
Sequence (Q8TDM6 617-713): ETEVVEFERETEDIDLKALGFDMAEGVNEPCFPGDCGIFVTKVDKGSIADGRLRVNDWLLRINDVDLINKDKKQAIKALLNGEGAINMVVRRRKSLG

**Q.** With B1 as the binder, how does the pKd read?
**A.** Its pKd is “below the threshold”.

molecular target: T9, APBA1_2, Q02410; experiment: holdup assay; design: key: below the threshold = too weak to quantify, mostly under pKd 3.1 to 4; details: plain residues with an end cap or a label only (N-terminal biotin on a linker: ado-ado)
T9 sequence (Q02410 742-832, limits assumed, looked up): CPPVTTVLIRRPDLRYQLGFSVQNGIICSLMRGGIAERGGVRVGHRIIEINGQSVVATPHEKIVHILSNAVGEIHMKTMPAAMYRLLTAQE

**Q.** B1 was tested. Which pKd did it give?
**A.** The pKd was 5.02.

molecular target: GRID2IP_2, A4D2P6; experiment: holdup assay; design: key: below the threshold = too weak to quantify, mostly under pKd 3.1 to 4; details: plain residues with an end cap or a label only (N-terminal biotin on a linker: ado-ado)
Sequence (A4D2P6 272-370): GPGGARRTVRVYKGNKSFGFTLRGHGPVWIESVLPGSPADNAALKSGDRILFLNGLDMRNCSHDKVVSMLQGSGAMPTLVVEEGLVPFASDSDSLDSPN

**Q.** With B1 as the binder, how does the pKd read?
**A.** Its pKd is 4.06.

molecular target: T10, DFNB31_3, Q9P202; experiment: holdup assay; design: key: below the threshold = too weak to quantify, mostly under pKd 3.1 to 4; details: plain residues with an end cap or a label only (N-terminal biotin on a linker: ado-ado)
T10 sequence (Q9P202 811-907, limits assumed, looked up): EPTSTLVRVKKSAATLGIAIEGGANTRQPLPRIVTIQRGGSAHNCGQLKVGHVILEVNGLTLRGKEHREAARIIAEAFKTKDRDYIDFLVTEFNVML

**Q.** Which pKd does the source give for B1 here?
**A.** Its pKd is 3.99.

molecular target: T11, GRIP1_7, Q9Y3R0; experiment: holdup assay; design: key: below the threshold = too weak to quantify, mostly under pKd 3.1 to 4; details: plain residues with an end cap or a label only (N-terminal biotin on a linker: ado-ado)
T11 sequence (Q9Y3R0 999-1096, limits assumed, looked up): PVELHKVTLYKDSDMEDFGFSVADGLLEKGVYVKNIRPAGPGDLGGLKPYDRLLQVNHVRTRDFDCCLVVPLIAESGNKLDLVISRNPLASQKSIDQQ

**Q.** With B1 as the binder, how does the pKd read?
**A.** Its pKd is 4.46.

molecular target: T12, APBA3_1, O96018; experiment: holdup assay; design: key: below the threshold = too weak to quantify, mostly under pKd 3.1 to 4; details: plain residues with an end cap or a label only (N-terminal biotin on a linker: ado-ado)
T12 sequence (O96018 389-490, limits assumed, looked up): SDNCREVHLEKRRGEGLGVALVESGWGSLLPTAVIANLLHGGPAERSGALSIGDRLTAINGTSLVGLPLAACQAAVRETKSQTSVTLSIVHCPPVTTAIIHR

**Q.** For B1, which pKd is on record?
**A.** Its pKd is “below the threshold”.

molecular target: TJP1_3, Q07157; experiment: holdup assay; design: key: below the threshold = too weak to quantify, mostly under pKd 3.1 to 4; details: plain residues with an end cap or a label only (N-terminal biotin on a linker: ado-ado)
Sequence (Q07157 416-512): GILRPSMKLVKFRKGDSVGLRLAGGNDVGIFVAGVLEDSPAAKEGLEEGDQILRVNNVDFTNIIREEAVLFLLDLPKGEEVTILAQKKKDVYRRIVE

**Q.** With B1 as the binder, how does the pKd read?
**A.** The pKd was 3.63.

molecular target: PDZRN4_1, Q6ZMN7; experiment: holdup assay; design: key: below the threshold = too weak to quantify, mostly under pKd 3.1 to 4; details: plain residues with an end cap or a label only (N-terminal biotin on a linker: ado-ado)
Sequence (Q6ZMN7 213-318): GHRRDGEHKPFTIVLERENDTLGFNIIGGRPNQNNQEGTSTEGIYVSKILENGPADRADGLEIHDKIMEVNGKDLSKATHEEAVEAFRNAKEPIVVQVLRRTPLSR

**Q.** How did the pKd turn out when B1 was run?
**A.** Its pKd is 4.13.

molecular target: DLG1_1, Q12959; experiment: holdup assay; design: key: below the threshold = too weak to quantify, mostly under pKd 3.1 to 4; details: plain residues with an end cap or a label only (N-terminal biotin on a linker: ado-ado)

**Q.** Which pKd does the source give for B1 here?
**A.** Its pKd is 4.25.
